In PMC5201417, “Drosophila non-muscle myosin II motor activity determines the rate of tissue folding” (eLife, 2016):

Key:
[1] = molecular target: Drosophila non-muscle myosin II heavy chain, HMM construct (amino acids 1-1363) (Drosophila melanogaster) (UniProt Q99323); experiment: co-purification (Flag affinity chromatography, stained SDS gel); heavy chain and both light chains co-expressed in Sf9 cells, purified via Flag affinity chromatography (HMM also by size exclusion chromatography); PageBlue-stained 4-12% Bis-Tris gel
Drosophila non-muscle myosin II heavy chain, HMM construct (amino acids 1-1363) (Drosophila melanogaster), sequence (Q99323 other isoform, or with tags, fused parts or gaps): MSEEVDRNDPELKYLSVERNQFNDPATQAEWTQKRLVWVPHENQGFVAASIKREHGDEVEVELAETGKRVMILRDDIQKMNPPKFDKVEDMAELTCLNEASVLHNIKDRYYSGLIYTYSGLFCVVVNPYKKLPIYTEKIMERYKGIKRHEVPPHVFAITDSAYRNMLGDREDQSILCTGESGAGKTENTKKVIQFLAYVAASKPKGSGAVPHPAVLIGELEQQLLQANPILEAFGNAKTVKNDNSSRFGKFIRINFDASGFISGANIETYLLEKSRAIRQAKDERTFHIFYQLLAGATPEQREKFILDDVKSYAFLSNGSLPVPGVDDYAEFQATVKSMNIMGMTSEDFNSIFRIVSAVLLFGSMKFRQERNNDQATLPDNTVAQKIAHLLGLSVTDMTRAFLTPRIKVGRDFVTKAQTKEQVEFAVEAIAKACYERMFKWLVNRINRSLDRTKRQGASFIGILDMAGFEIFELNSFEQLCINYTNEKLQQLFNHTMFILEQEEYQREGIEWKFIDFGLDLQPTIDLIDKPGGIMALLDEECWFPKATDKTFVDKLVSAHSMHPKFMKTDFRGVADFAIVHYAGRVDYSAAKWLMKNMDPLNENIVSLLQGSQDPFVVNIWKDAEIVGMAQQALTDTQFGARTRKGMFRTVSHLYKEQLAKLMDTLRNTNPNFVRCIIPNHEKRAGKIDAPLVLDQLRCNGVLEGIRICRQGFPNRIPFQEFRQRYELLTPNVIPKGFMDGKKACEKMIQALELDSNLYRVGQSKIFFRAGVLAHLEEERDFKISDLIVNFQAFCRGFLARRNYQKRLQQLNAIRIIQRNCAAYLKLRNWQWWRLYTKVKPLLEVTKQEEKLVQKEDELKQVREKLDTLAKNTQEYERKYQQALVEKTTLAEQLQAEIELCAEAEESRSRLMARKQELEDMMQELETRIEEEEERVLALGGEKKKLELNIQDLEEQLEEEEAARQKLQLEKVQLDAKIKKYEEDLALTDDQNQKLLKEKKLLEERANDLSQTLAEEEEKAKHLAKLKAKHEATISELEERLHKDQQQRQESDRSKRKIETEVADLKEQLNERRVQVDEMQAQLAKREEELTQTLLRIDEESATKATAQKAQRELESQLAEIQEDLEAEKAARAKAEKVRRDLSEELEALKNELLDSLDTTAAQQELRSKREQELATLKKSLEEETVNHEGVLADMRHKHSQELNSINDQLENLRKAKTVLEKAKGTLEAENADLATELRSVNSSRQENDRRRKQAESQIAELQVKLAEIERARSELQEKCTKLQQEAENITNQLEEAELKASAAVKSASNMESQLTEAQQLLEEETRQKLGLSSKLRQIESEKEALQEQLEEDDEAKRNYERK

[2] = molecular target: Drosophila non-muscle myosin II heavy chain, full length (amino acids 1-1971) (Drosophila melanogaster) (UniProt Q99323); experiment: as above
Drosophila non-muscle myosin II heavy chain, full length (amino acids 1-1971) (Drosophila melanogaster), sequence (Q99323 other isoform, or with tags, fused parts or gaps): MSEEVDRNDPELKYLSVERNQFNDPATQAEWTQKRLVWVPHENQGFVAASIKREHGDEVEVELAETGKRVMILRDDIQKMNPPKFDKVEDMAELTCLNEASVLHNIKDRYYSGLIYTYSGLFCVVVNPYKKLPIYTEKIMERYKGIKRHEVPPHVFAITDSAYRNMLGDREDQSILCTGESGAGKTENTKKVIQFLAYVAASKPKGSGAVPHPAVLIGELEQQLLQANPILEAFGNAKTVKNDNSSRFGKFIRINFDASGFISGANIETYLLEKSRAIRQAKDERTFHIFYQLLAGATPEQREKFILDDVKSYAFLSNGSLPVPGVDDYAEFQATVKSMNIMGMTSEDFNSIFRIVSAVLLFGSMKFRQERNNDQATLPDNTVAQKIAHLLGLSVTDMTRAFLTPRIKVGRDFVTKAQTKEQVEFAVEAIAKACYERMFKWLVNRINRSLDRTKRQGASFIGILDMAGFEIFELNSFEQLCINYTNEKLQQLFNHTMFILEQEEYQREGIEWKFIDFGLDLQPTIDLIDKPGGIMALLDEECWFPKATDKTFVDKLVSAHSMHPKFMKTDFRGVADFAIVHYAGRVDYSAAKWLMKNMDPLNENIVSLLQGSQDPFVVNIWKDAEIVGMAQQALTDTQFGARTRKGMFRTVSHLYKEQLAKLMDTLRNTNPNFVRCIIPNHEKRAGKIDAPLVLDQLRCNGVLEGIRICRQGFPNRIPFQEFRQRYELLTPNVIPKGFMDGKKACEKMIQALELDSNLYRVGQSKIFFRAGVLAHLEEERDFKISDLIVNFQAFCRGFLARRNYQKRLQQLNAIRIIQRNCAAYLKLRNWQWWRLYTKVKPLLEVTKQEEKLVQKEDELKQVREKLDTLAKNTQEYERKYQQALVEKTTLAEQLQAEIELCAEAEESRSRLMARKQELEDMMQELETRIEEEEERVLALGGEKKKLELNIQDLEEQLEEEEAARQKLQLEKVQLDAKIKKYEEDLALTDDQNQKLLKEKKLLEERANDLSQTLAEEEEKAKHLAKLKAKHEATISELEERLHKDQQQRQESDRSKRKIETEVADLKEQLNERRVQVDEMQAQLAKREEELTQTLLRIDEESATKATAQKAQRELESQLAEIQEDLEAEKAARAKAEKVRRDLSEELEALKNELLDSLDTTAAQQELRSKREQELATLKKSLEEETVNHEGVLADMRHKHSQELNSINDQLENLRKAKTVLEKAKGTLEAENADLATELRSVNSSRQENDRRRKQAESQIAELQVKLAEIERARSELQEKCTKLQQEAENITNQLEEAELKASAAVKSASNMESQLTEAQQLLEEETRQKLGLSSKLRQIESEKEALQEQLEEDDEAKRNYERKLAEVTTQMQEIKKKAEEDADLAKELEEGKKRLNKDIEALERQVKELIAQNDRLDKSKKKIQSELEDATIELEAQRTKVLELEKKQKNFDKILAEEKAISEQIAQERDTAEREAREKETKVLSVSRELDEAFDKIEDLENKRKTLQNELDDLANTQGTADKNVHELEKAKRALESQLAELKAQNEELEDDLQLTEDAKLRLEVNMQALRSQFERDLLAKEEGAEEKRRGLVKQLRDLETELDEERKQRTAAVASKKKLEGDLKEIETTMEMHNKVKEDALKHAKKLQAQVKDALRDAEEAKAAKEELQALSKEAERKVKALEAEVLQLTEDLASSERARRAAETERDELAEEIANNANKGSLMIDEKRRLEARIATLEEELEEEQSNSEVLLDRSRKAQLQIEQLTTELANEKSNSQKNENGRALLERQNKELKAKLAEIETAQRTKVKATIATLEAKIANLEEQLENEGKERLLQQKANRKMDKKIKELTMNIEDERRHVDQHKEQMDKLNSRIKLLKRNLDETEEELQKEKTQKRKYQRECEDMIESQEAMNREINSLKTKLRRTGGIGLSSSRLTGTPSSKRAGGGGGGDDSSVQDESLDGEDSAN

[3] = molecular target: filamentous actin from rabbit skeletal muscle (rabbit) (UniProt P68135)
[4] = molecular target: T1, Drosophila non-muscle myosin II heavy chain, HMM construct (amino acids 1-1363) (Drosophila melanogaster, UniProt Q99323-2 1-1363); experiment: co-purification (Flag affinity chromatography, stained SDS gel); heavy chain and both light chains co-expressed in Sf9 cells, purified via Flag affinity chromatography (HMM also by size exclusion chromatography); PageBlue-stained 4-12% Bis-Tris gel; settings: partners not purified
T1 construct: numbers count on: NP_001014553.1; the heavy chain alone, for the rows of heavy chain with each light chain; whether it carries the Halo tag is not clear; also called HMM (160 kDa); myosin heavy chain

[5] = molecular target: T2, Drosophila non-muscle myosin II heavy chain, full length (amino acids 1-1971) (Drosophila melanogaster, UniProt Q99323-2 1-1971); experiment: as above; settings: partners not purified
T2 construct: the heavy chain alone, for the rows of heavy chain with each light chain; also called full-length (228 kDa); myosin heavy chain

Row | Molecule | stoichiometry N [1] | stoichiometry N [2] | Kapp (apparent actin affinity) of the actin-activated steady-state ATPase, NADH-linked assay at 25°C, 0-100 µM filamentous actin, Michaelis-Menten fit [3] | stoichiometry N [4] | stoichiometry N [5]
1 | Drosophila myosin regulatory light chain (Sqh), mutant RLC-AA (natural protein) | 1 | 1 | – | – | –
2 | Drosophila myosin regulatory light chain (Sqh), mutant RLC-AE (natural protein) | 1 | 1 | – | – | –
3 | Drosophila myosin regulatory light chain (Sqh), mutant RLC-AS (natural protein) | 1 | 1 | – | – | –
4 | Drosophila myosin regulatory light chain (Sqh), mutant RLC-EE (natural protein) | 1 | 1 | – | – | –
5 | Drosophila myosin regulatory light chain (Sqh), mutant RLC-TA (natural protein) | 1 | 1 | – | – | –
6 | Drosophila non-muscle myosin II heavy meromyosin (HMM) with wild-type RLC, phosphorylated by MLCK (from UniProt Q99323-2 1-1363; P40423 1-174; P54357 1-147) (complex) | – | – | 38.9 µM | – | –
7 | Drosophila myosin essential light chain (Mlc-c) (natural protein, Drosophila melanogaster, UniProt P54357 1-147, looked up, Drosophila myosin essential light chain Mlc-c; 16 kDa on the gel; also called ELC; source: Sf9 insect cells (baculovirus, polycistronic vector with Sqh), co-expressed and co-purified with the heavy chain) light: MAAYTEDQLAEFQEAFNLFDNRGDGKIQLSQVGECLRALGQNPTESDVKKCTHQLKPDERISFEVFLPIYQAISKARSGDTADDFIEGLRHFDKDASGYISSAELRHLLTTLGEKLTDEEVEQLLANMEDQQGNINYEEFVRMVMSG | – | – | – | 1 | 1
8 | Drosophila myosin regulatory light chain (Sqh), wild type (natural protein, Drosophila melanogaster, UniProt P40423 1-174, looked up, Drosophila myosin regulatory light chain Sqh (spaghetti squash); 19 kDa on the gel; also called RLC; RLC-TS; source: Sf9 insect cells (baculovirus, polycistronic vector with Mlc-c), co-expressed and co-purified with the heavy chain) light: MSSRKTAGRRATTKKRAQRATSNVFAMFDQAQIAEFKEAFNMIDQNRDGFVEKEDLHDMLASLGKNPTDDYLDGMMNEAPGPINFTMFLTLFGERLQGTDPEDVIKNAFGCFDEENMGVLPEDRLRELLTTMGDRFTDEDVDEMYREAPIKNGLFDYLEFTRILKHGAKDKDEQ | – | – | – | 1 | 1
